From publication PMC2881335
Where “and” joins values, the source holds several entries; their conditions need not be identical. Equal entries are not always repeated.

B1: staphylococcal complement inhibitor SCIN-A (natural protein)
chain: STSLPTSNEYQNEKLANELKSLLDELNVNELATGSLNTYYKRTIKISGQKAMYALKSKDFKKMSEAKYQLQKIYNEIDEALKSKY

Key:
[1] = molecular target: complement C3b, site-specifically biotinylated at the thioester moiety (UniProt P01024); test: SPR
[2] = molecular target: complement C3b (UniProt P01024); test: ITC
[3] = molecular target: complement C3b, site-specifically biotinylated at the thioester moiety (UniProt P01024); test: SPR; remark: listed apart in the source

Row | Molecule | decay half-life of the convertase [1] | Kd [2] | stoichiometry N [2] | Kd [3]
1 | Bb fragment of factor B (from UniProt P00751 260-764) (domain or fragment) | 5 to 6 min | – | – | –
2 | B1 | – | 264 nM | 0.75 | 169 nM and 177 nM
